Each block holds one binder with its values, some of them ahead of it.
Key:
[1] = molecular target: human FRα on cells (human) (UniProt P15328); test: flow cytometry competition on H2110 cells; competitor: v23924; first of two values
[2] = molecular target: human FRα on cells (human) (UniProt P15328); test: flow cytometry competition on H2110 cells; competitor: v23924; second of two values
[3] = molecular target: human FRα on cells (human) (UniProt P15328); test: flow cytometry competition on H2110 cells; competitor: Mirvetuximab; first of two values
[4] = molecular target: human FRα on cells (human) (UniProt P15328); test: flow cytometry competition on H2110 cells; competitor: Mirvetuximab; second of two values
[5] = molecular target: human FRα on cells (human) (UniProt P15328); test: flow cytometry competition on H2110 cells; competitor: Farletuzumab (self); first of two values
[6] = molecular target: human FRα on cells (human) (UniProt P15328); test: flow cytometry competition on H2110 cells; competitor: Farletuzumab (self); second of two values
[7] = molecular target: human FRα on cells (human) (UniProt P15328); test: flow cytometry competition on H2110 cells; competitor: Farletuzumab; first of two values
[8] = molecular target: human FRα on cells (human) (UniProt P15328); test: flow cytometry competition on H2110 cells; competitor: Farletuzumab; second of two values
[9] = molecular target: human FRα on cells (human) (UniProt P15328); test: flow cytometry competition on H2110 cells; competitor: Mirvetuximab (self); first of two values
[10] = molecular target: human FRα on cells (human) (UniProt P15328); test: flow cytometry competition on H2110 cells; competitor: Mirvetuximab (self); second of two values

human FRα on cells (human), sequence (P15328 25-234 limits assumed): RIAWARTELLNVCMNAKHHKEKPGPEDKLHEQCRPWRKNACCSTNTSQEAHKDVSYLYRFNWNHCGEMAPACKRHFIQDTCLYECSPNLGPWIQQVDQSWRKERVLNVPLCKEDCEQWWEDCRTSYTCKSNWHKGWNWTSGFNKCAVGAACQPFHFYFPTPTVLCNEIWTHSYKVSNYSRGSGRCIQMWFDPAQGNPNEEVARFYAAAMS

% Competition Binding [1]: 99%
% Competition Binding [2]: 72%
% Competition Binding [3]: 91%
% Competition Binding [4]: 75%
% Competition Binding [5]: 98%
% Competition Binding [6]: 100%
B1: farletuzumab (v31629) (antibody, part only; not given: constant regions, V domains shown, not shown: another chain or arm of the molecule)
VH: EVQLVESGGGVVQPGRSLRLSCSASGFTFSGYGLSWVRQAPGKGLEWVAMISSGGSYTYYADSVKGRFAISRDNAKNTLFLQMDSLRPEDTGVYFCARHGDDPAWFAYWGQGTPVTVSS
VL: DIQLTQSPSSLSASVGDRVTITCSVSSSISSNNLHWYQQKPGKAPKPWIYGTSNLASGVPSRFSGSGSGTDYTFTISSLQPEDIATYYCQQWSSYPYMYTFGQGTKVEIK

% Competition Binding [1]: 13%
% Competition Binding [2]: 7%
% Competition Binding [7]: 99%
% Competition Binding [8]: 100%
% Competition Binding [9]: 100%
% Competition Binding [10]: 98%
B2: mirvetuximab (v17716) (antibody, part only; not given: constant regions, V domains shown, not shown: another chain or arm of the molecule)
VH: QVQLVQSGAEVVKPGASVKISCKASGYTFTGYFMNWVKQSPGQSLEWIGRIHPYDGDTFYNQKFQGKATLTVDKSSNTAHMELLSLTSEDFAVYYCTRYDGSRAMDYWGQGTTVTVSS
VL: DIVLTQSPLSLAVSLGQPAIISCKASQSVSFAGTSLMHWYHQKPGQQPRLLIYRASNLEAGVPDRFSGSGSKTDFTLTISPVEAEDAATYYCQQSREYPYTFGGGTKLEIK

From patent publication US20240424125A1
